According to PMC9482650, “Quantitative fragmentomics allow affinity mapping of interactomes” (Nature Communications, 2022):

Columns and labels:
Experiment in all cases: holdup assay
Design in all cases: key: below the threshold = too weak to quantify, mostly under pKd 3.1 to 4
PCLO, Q9Y6V0 = target: T1, PCLO, Q9Y6V0
T1 sequence (Q9Y6V0 4491-4600, limits assumed, looked up): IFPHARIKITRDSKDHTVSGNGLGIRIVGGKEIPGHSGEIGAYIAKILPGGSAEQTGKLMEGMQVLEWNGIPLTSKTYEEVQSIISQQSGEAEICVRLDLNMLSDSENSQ

FRMPD2_1, Q68DX3 = target: FRMPD2_1, Q68DX3
HTRA4, P83105 = target: T2, HTRA4, P83105
T2 sequence (P83105 378-476, limits assumed, looked up): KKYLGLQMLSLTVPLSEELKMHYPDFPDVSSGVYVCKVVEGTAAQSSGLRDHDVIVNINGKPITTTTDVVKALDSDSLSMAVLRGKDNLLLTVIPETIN

MPP6, Q9NZW5 = target: T3, MPP6, Q9NZW5
T3 sequence (Q9NZW5 125-219, limits assumed, looked up): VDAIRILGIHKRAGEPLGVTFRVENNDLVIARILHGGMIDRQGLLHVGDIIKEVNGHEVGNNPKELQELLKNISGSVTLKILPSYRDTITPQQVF

LNX2_2, Q8N448 = target: T4, LNX2_2, Q8N448
T4 sequence (Q8N448 334-432, limits assumed, looked up): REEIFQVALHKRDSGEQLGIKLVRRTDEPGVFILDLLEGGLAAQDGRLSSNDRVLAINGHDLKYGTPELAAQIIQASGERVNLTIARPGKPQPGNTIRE

IL16_3, Q14005 = target: IL16_3, Q14005
RADIL, Q96JH8 = target: T5, RADIL, Q96JH8
T5 sequence (Q96JH8 971-1071, limits assumed, looked up): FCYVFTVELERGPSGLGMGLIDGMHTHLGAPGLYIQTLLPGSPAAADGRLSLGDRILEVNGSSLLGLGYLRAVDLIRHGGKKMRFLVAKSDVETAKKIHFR

FRMPD4, Q14CM0 = target: FRMPD4, Q14CM0
HTRA1, Q92743 = target: HTRA1, Q92743
IL16_4, Q14005 = target: IL16_4, Q14005
Inadl_3, Q8NI35 = target: Inadl_3, Q8NI35
DLG5_1, Q8TDM6 = target: DLG5_1, Q8TDM6
PDZRN3_1, Q9UPQ7 = target: T6, PDZRN3_1, Q9UPQ7
T6 sequence (Q9UPQ7 244-349, limits assumed, looked up): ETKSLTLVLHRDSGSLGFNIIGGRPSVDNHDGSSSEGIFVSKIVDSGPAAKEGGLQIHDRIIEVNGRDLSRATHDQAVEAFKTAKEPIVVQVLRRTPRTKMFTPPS

LIMK2, P53671 = target: LIMK2, P53671
NHERF4_1, Q86UT5-2 = target: NHERF4_1, Q86UT5-2
HTRA3, P83110 = target: T7, HTRA3, P83110
T7 sequence (P83110 354-453, limits assumed, looked up): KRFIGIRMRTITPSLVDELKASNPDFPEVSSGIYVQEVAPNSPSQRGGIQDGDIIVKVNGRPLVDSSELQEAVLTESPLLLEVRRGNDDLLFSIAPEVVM

GORASP1, Q9BQQ3 = target: GORASP1, Q9BQQ3
PARD3_3, Q8TEW0 = target: PARD3_3, Q8TEW0
SNTB1, Q13884 = target: T8, SNTB1, Q13884
T8 sequence (Q13884 107-205, limits assumed, looked up): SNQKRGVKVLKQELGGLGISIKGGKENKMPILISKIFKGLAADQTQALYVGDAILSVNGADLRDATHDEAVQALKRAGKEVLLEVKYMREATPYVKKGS

MPDZ_12, O75970 = target: T9, MPDZ_12, O75970
T9 sequence (O75970 1857-1958, limits assumed, looked up): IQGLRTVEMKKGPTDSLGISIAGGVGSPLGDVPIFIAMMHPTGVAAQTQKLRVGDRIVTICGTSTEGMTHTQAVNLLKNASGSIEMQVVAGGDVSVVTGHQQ

GRASP, Q7Z6J2 = target: GRASP, Q7Z6J2
SNTG1, Q9NSN8 = target: T10, SNTG1, Q9NSN8
T10 sequence (Q9NSN8 52-150, limits assumed, looked up): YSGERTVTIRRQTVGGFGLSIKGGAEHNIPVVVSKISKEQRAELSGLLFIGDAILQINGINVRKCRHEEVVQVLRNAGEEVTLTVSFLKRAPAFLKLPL

Inadl_5, Q8NI35 = target: Inadl_5, Q8NI35
GRIP1_7, Q9Y3R0 = target: T11, GRIP1_7, Q9Y3R0
T11 sequence (Q9Y3R0 999-1096, limits assumed, looked up): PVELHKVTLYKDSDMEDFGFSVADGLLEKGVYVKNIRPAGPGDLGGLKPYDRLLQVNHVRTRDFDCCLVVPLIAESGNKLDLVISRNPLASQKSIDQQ

FRMPD2_2, Q68DX3 = target: FRMPD2_2, Q68DX3
LNX1_3, Q8TBB1 = target: LNX1_3, Q8TBB1
[1] = plain residues with an end cap or a label only (N-terminal biotin on a linker: ttds)
[2] = plain residues with an end cap or a label only (N-terminal biotin on a linker: ahx)

PARD3_3, Q8TEW0, sequence (Q8TEW0 582-685): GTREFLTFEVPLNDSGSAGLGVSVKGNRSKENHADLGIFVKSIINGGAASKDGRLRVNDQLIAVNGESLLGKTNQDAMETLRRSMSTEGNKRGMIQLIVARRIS
GORASP1, Q9BQQ3, sequence (Q9BQQ3 1-208): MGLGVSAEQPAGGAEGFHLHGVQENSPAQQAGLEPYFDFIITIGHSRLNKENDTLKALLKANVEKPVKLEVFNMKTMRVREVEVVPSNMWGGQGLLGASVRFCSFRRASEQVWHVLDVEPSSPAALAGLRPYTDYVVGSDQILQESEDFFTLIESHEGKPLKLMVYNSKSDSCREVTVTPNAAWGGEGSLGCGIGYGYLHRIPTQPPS
Inadl_5, Q8NI35, sequence (Q8NI35 673-780): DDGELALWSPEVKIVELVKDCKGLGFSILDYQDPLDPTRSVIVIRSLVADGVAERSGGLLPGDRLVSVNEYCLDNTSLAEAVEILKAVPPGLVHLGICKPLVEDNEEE
Inadl_3, Q8NI35, sequence (Q8NI35 359-469): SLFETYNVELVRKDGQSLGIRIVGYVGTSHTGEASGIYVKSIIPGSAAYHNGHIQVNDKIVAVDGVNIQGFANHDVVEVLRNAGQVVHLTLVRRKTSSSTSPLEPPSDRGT
FRMPD2_1, Q68DX3, sequence (Q68DX3 770-861): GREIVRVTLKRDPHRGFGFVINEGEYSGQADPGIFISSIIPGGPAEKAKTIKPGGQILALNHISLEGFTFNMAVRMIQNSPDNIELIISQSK
LIMK2, P53671, sequence (P53671 143-248): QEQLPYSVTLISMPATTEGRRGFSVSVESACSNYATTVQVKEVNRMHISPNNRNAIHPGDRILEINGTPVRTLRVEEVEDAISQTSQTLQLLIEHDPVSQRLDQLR
GRASP, Q7Z6J2, sequence (Q7Z6J2 96-193): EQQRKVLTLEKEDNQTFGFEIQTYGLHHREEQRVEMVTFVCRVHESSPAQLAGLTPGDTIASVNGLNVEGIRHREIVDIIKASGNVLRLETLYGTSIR
LNX1_3, Q8TBB1, sequence (Q8TBB1 500-596): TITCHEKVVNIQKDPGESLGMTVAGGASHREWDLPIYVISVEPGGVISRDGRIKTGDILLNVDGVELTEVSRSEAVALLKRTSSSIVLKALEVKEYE
NHERF4_1, Q86UT5-2, sequence (Q86UT5 other isoform, or with tags, fused parts or gaps): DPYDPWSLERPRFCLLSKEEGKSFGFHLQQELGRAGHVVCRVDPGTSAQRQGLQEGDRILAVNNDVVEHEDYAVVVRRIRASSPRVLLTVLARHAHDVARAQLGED
DLG5_1, Q8TDM6, sequence (Q8TDM6 617-713): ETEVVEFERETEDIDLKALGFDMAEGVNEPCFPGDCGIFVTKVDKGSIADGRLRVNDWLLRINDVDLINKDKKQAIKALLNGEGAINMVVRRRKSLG
IL16_4, Q14005, sequence (Q14005 1229-1329): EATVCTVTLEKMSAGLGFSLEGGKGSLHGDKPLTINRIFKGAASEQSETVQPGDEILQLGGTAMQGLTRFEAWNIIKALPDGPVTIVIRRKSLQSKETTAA
FRMPD2_2, Q68DX3, sequence (Q68DX3 944-1038): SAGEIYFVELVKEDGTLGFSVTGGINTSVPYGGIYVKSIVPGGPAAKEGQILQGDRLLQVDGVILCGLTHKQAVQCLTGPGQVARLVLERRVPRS
IL16_3, Q14005, sequence (Q14005 1107-1207): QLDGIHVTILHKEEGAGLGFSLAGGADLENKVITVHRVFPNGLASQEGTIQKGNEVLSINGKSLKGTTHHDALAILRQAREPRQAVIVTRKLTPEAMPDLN
HTRA1, Q92743, sequence (Q92743 360-477): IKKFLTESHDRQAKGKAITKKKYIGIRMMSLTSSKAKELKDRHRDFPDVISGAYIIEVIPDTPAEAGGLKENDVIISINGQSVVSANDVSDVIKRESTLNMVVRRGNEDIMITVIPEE
FRMPD4, Q14CM0, sequence (Q14CM0 67-160): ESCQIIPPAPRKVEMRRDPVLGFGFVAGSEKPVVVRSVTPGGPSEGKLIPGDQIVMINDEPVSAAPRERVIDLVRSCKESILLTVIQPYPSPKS

## PFRSRSPSEV [GPR6, P46095]
PCLO, Q9Y6V0; [1]
  pKd: below the threshold
FRMPD2_1, Q68DX3; [1]
  pKd: below the threshold
HTRA4, P83105; [1]
  pKd: below the threshold
MPP6, Q9NZW5; [1]
  pKd: below the threshold
LNX2_2, Q8N448; [1]
  pKd: below the threshold
IL16_3, Q14005; [1]
  pKd: below the threshold
RADIL, Q96JH8; [1]
  pKd: below the threshold
FRMPD4, Q14CM0; [1]
  pKd: below the threshold
HTRA1, Q92743; [1]
  pKd: below the threshold
IL16_4, Q14005; [1]
  pKd: below the threshold
Inadl_3, Q8NI35; [1]
  pKd: below the threshold
DLG5_1, Q8TDM6; [1]
  pKd: below the threshold
PDZRN3_1, Q9UPQ7; [1]
  pKd: below the threshold
LIMK2, P53671; [1]
  pKd: below the threshold
NHERF4_1, Q86UT5-2; [1]
  pKd: below the threshold
HTRA3, P83110; [1]
  pKd: below the threshold
GORASP1, Q9BQQ3; [1]
  pKd: below the threshold
PARD3_3, Q8TEW0; [1]
  pKd: below the threshold
SNTB1, Q13884; [1]
  pKd: below the threshold
MPDZ_12, O75970; [1]
  pKd: below the threshold
GRASP, Q7Z6J2; [1]
  pKd: below the threshold
SNTG1, Q9NSN8; [1]
  pKd: below the threshold
Inadl_5, Q8NI35; [1]
  pKd: 4.29
GRIP1_7, Q9Y3R0; [1]
  pKd: 3.63
FRMPD2_2, Q68DX3; [1]
  pKd: below the threshold
LNX1_3, Q8TBB1; [1]
  pKd: below the threshold

## KEYDDELTFF [USH1C, Q9Y6N9]
PCLO, Q9Y6V0; [2]
  pKd: below the threshold
FRMPD2_1, Q68DX3; [2]
  pKd: below the threshold
HTRA4, P83105; [2]
  pKd: below the threshold
MPP6, Q9NZW5; [2]
  pKd: below the threshold
LNX2_2, Q8N448; [2]
  pKd: below the threshold
IL16_3, Q14005; [2]
  pKd: below the threshold
RADIL, Q96JH8; [2]
  pKd: 3.78
FRMPD4, Q14CM0; [2]
  pKd: 4.42
HTRA1, Q92743; [2]
  pKd: 4.3
IL16_4, Q14005; [2]
  pKd: below the threshold
Inadl_3, Q8NI35; [2]
  pKd: 3.89
DLG5_1, Q8TDM6; [2]
  pKd: below the threshold
PDZRN3_1, Q9UPQ7; [2]
  pKd: below the threshold
LIMK2, P53671; [2]
  pKd: below the threshold
NHERF4_1, Q86UT5-2; [2]
  pKd: 3.6
HTRA3, P83110; [2]
  pKd: below the threshold
GORASP1, Q9BQQ3; [2]
  pKd: 3.56
PARD3_3, Q8TEW0; [2]
  pKd: 5.09
SNTB1, Q13884; [2]
  pKd: below the threshold
MPDZ_12, O75970; [2]
  pKd: below the threshold
GRASP, Q7Z6J2; [2]
  pKd: 4.41
SNTG1, Q9NSN8; [2]
  pKd: below the threshold
Inadl_5, Q8NI35; [2]
  pKd: below the threshold
GRIP1_7, Q9Y3R0; [2]
  pKd: below the threshold
FRMPD2_2, Q68DX3; [2]
  pKd: below the threshold
LNX1_3, Q8TBB1; [2]
  pKd: below the threshold

## KLVIKTETTV [RASSF6, Q6ZTQ3]
PCLO, Q9Y6V0; [1]
  pKd: below the threshold
FRMPD2_1, Q68DX3; [1]
  pKd: below the threshold
HTRA4, P83105; [1]
  pKd: 3.46
MPP6, Q9NZW5; [1]
  pKd: below the threshold
LNX2_2, Q8N448; [1]
  pKd: 4.48
IL16_3, Q14005; [1]
  pKd: below the threshold
RADIL, Q96JH8; [1]
  pKd: below the threshold
FRMPD4, Q14CM0; [1]
  pKd: below the threshold
HTRA1, Q92743; [1]
  pKd: 3.75
IL16_4, Q14005; [1]
  pKd: 3.49
Inadl_3, Q8NI35; [1]
  pKd: below the threshold
DLG5_1, Q8TDM6; [1]
  pKd: below the threshold
PDZRN3_1, Q9UPQ7; [1]
  pKd: 3.82
LIMK2, P53671; [1]
  pKd: below the threshold
NHERF4_1, Q86UT5-2; [1]
  pKd: below the threshold
HTRA3, P83110; [1]
  pKd: below the threshold
GORASP1, Q9BQQ3; [1]
  pKd: below the threshold
PARD3_3, Q8TEW0; [1]
  pKd: below the threshold
SNTB1, Q13884; [1]
  pKd: 4.14
MPDZ_12, O75970; [1]
  pKd: below the threshold
GRASP, Q7Z6J2; [1]
  pKd: 3.51
SNTG1, Q9NSN8; [1]
  pKd: 4.16
Inadl_5, Q8NI35; [1]
  pKd: below the threshold
GRIP1_7, Q9Y3R0; [1]
  pKd: 3.72
FRMPD2_2, Q68DX3; [1]
  pKd: below the threshold
LNX1_3, Q8TBB1; [1]
  pKd: below the threshold
